Reference: patent US20200247889A1 (published 2020)
Positions count from the first letter of the chain named. Blank lines part the entries; values can stand above or below the binder they belong to.

Key:
cynomolgus TREM1 = biological target: T1, cynomolgus TREM1 (cynomolgus, UniProt A0A2K5VHG8 21-233); test: flow cytometry on HEK293 cells over-expressing cynomolgus TREM-1
T1 construct: whole, on cells; also called cTREM1
T1 sequence: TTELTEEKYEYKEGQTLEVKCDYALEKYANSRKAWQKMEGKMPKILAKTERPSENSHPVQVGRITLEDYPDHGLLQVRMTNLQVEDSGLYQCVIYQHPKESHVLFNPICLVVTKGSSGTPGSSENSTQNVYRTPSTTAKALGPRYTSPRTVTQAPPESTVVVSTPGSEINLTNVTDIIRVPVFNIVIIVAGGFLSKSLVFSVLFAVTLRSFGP
Protocol: Titrations of indicated unconjugated antibodies were incubated with these cells within a range of 0 ug/ml to 30 ug/ml in a 1:4 or 1:5 dilution range across 8 points. […] EC50 values were calculated by curve fitting signal generated from antibodies binding to over-expressing cells over background fluorescence generated from HEK293 parental cells in Graphpad Prism (Graphpad Software).

mouse TREM1 [1] = biological target: T2, mouse TREM1 (mouse, UniProt Q9JKE2 21-230); test: flow cytometry cross-blocking on HEK293 cells over-expressing mouse TREM-1
T2 construct: whole, on cells; also called mTREM1
T2 sequence (looked up): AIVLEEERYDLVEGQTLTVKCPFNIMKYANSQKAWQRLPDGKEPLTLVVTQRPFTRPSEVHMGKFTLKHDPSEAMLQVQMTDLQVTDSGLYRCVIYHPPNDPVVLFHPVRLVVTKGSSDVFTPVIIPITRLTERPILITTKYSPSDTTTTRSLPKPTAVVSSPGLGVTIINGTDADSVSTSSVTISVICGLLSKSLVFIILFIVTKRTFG
Protocol: 100,000 HEK293 cells over-expressing mouse TREM-1 were plated in 96 well plates and dead cells were stained with Zombie Near Infrared (Biolegend, San Diego, Calif.). These cells were subsequently incubated with the indicated unconjugated anti-mouse TREM-1 antibodies at saturating concentrations for 15 mins on ice. Following incubation with these antibodies, cells were then stained with the indicated Alexa Fluor 647 conjugated antibodies for 30 mins on ice. The ability of conjugated antibodies to bind in the presence of unconjugated antibodies was assessed by Alexa 647 signal measured by flow cytometry (BD Fortessa X-14, BD Biosciences, San Jose, Calif.).
The sequences denote the linear amino acid stretches that comprise each domain and the numbering is according to UniProt sequence analysis and 3D modelling of mouse TREM1.

mouse TREM1 [2] = biological target: T2, mouse TREM1; test: flow cytometry on HEK293 cells over-expressing mouse TREM-1
Protocol: 100,000 HEK 293 parental or over-expressing mouse TREM-1 were plated in 96 well plates and dead cells were stained with Zombie Near Infrared (Biolegend, San Diego, Calif.). […] These primary unconjugated antibodies were detected with Alexa Fluor 647 conjugated anti-mouse Fcγ secondary antibodies (Jackson Immunoresearch, West Grove, Pa.). Alexa Fluor 647 signal was measured by flow cytometry (BD Fortessa X-14, BD Biosciences, San Jose, Calif.). EC50 values were calculated by curve fitting signal generated from antibodies binding to over-expressing cells over background fluorescence generated from HEK293 parental cells in Graphpad Prism (Graphpad Software, La Jolla, Calif.).

mouse TREM1 [3] = biological target: T2, mouse TREM1; test: in vivo receptor occupancy, flow cytometry of tumor cells
Protocol: CT26 (colon adenocarcinoma), LL/2 (lung adenocarcinoma), MC38 (colon adenocarcinoma), and RENCA (renal cell carcinoma) were harvested using StemPro Accutase Dissociation reagent (Gibco Corporation), washed in PBS and subcutaneously injected to female C57BL/6 (Jackson Laboratories) or BALB/c (Taconic Biosciences) mice at a dose between 8×10⁵-1×10⁶ cells in the right ventral flank. […] Antibody treatments were 15 mg/kg for both arms and mice were treated twice at the indicated time points. 48 hr after the second dose, mice were euthanized and the tumor and blood were harvested for immune population analysis and expression of TREM1. Immune population and expression analyses were performed by flow cytometry (BD Fortessa X-14, BD Biosciences).

B1: Pi-8421 (antibody, V domains shown)
VH: EVQLVESGGGLVQPGGSLRLSCAASGFDISYSSIHWVRQAPGKGLEWVASIYSSYGSTYYADSVKGRFTISADTSKNTAYLQMNSLRAEDTAVYYCARYYYSHAGWYVSGYWPAIDYWGQGTLVTVSS
VL: DIQMTQSPSSLSASVGDRVTITCRASQSVSSAVAWYQQKPGKAPKLLIYSASSLYSGVPSRFSGSRSGTDFTLTISSLQPEDFATYYCQQSSYSLITFGQGTKVEIK
binding result (cynomolgus TREM1): no binding (tested: titrated within 0 ug/ml to 30 ug/ml)

B3: afucosylated Pi-9772 (antibody, mouse IgG2a, kappa, V domains shown)
VH: EVQLVESGGGLVQPGGSLRLSCAASGFDLSYSSMHWVRQAPGKGLEWVAYISPYSGYTSYADSVKGRFTISADTSKNTAYLQMNSLRAEDTAVYYCARHGSWSYGFSSGFDYWGQGTLVTVSS
VL: DIQMTQSPSSLSASVGDRVTITCRASQSVSSAVAWYQQKPGKAPKLLIYSASSLYSGVPSRFSGSRSGTDFTLTISSLQPEDFATYYCQQYAYYYPITFGQGTKVEIKR
modifications: afucosylated Fc glycan
binding result (mouse TREM1 [2]): binds

B7: Pi-4928 (antibody, mouse IgG2a, kappa, V domains shown)
VH: QVQLKESGPGLVQPSQTLSLTCTVSGFSITSSNVYWFRQPPGKGLEWMGNIWGDGSTDYNSSLKSRLTLSRDTSKNQVFLKINSLQSEDTATYFCTRSWEYYFDHWGQGVVVTVSS
VL: DIVLTQSPALAVSPGQRATLSCRASQSVTLSNVNLMNWYQQKPGQQPKLLIYHASNLASGIPTRFSGSGSGTDFTLTIDPVQADDIAAYYCQQSGESPRTFGGGTKVELKR
notes: Anti-mouse TREM1 mAb
binding result (mouse TREM1 [1]): binds

B8: afucosylated Pi-4928 (antibody, mouse IgG2a, kappa, V domains shown)
VH: B7 VH
VL: B7 VL
modifications: afucosylated Fc glycan
binding result (mouse TREM1 [2]): binds

Next, values leading:

binding result (mouse TREM1 [1]): binds
B2: Pi-9772 (antibody, mouse IgG2a, kappa, V domains shown)
VH: B3 VH
VL: B3 VL
notes: Anti-mouse TREM1 mAb

binding result (mouse TREM1 [1]): binds
B4: Pi-9067L (antibody, mouse IgG2a, kappa, V domains shown)
VH: EVQLVESGGGLVQPGGSLRLSCAASGFDIYSYSIHWVRQAPGKGLEWVAYIYPSYGYTSYADSVKGRFTISADTSKNTAYLQMNSLRAEDTAVYYCARGAVAALDYWGQGTLVTVSS
VL: DIQMTQSPSSLSASVGDRVTITCRASQSVSSAVAWYQQKPGKAPKLLIYSASSLYSGVPSRFSGSRSGTDFTLTISSLQPEDFATYYCQQYGVSGYSLITFGQGTKVEIKR
notes: Anti-mouse TREM1; also called WT Pi-9067L; fucosylated PI-9067L

binding result (mouse TREM1 [2]): binds
B5: afucosylated Pi-9067L (antibody, mouse IgG2a, kappa, V domains shown)
VH: B4 VH
VL: B4 VL
modifications: afucosylated Fc glycan
notes: Same polypeptides as Pi-9067L, afucosylated; also called Afuc-Pi-9067L; Afuc-PI-9067L

binding result (mouse TREM1 [3]): binds
B6: Pi-9069L (antibody, mouse IgG2a, kappa, V domains shown)
VH: EVQLVESGGGLVQPGGSLRLSCAASGFDLYSSYIHWVRQAPGKGLEWVASIYPSYGYTYYADSVKGRFTISADTSKNTAYLQMNSLRAEDTAVYYCARSHSYVHGAMDYWGQGTLVTVSS
VL: B4 VL with G92W, V93W, S94V, G95P, Y96A, S97A, L98P
